Reference: patent US20160017037A1 (GlaxoSmithKline, published 2016)
One block for each binder: values may come before it.

Experiments:
[1] = molecular target: T1, recombinant soluble human FcγRIIIa F158 (human, UniProt P08637 17-208); test: SPR ProteOn XPR36, His-tagged receptor captured on anti-poly-histidine IgG, antibody analyte 8-2048 nM, equilibrium model, 25 C
T1 construct: also called FcγRIIIa phenylalanine F158; CD16
Experimental: (§1) A goat anti-poly-histidine IgG was immobilised on a GLM biosensor chip by primary amine coupling. This surface was used as a capture surface for the poly-histidine tagged human Fc gamma receptors. […] The goat anti-poly-histidine IgG surface was regenerated with 100 mM phosphoric acid between interactions. The run was carried out on the ProteOn XPR36 Protein Array Interaction System at 25° C. and using HBS-EP as running buffer. Data was analysed for each receptor separately, setting a global R-max and using the Equilibrium Model inherent to the ProteOn's analysis software. Control molecules were run at the beginning and the end of the set of samples to be tested to ensure comparability of results. Data was compared from two experiments and hybrid control antibodies used as controls between experiments.

[2] = molecular target: T2, recombinant soluble human FcγRIIIa V158 (human, UniProt P08637 17-208); test: as above
T2 construct: also called FcγRIIIa valine V158; CD16
Experimental: as §1

[3] = molecular target: T3, recombinant soluble human FcγRIIa H131 (human, UniProt P12318 36-218, limits assumed); test: as above
T3 sequence (looked up): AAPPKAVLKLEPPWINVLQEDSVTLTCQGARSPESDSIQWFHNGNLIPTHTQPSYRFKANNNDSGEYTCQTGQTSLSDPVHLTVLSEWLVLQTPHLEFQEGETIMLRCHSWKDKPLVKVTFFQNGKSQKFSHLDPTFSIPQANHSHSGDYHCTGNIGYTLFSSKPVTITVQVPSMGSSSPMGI
Experimental: as §1

[4] = molecular target: T4, recombinant soluble human FcγRI (human, UniProt P12314 16-288, limits assumed); test: as above
T4 construct: also called CD64
Experimental: as §1

[5] = molecular target: T5, Recombinant human LAG-3 ECD-His6 (human, UniProt P18627 23-433); test: SPR Biacore T100, antibody captured on Protein A, LAG-3 ECD-His6 analyte, 1:1 model, 25 C, geometric mean of 3 runs (table head says nM; value is in M by paragraph 194)
T5 construct: also called LAG-3-His; recombinant human LAG-3-His
T5 sequence: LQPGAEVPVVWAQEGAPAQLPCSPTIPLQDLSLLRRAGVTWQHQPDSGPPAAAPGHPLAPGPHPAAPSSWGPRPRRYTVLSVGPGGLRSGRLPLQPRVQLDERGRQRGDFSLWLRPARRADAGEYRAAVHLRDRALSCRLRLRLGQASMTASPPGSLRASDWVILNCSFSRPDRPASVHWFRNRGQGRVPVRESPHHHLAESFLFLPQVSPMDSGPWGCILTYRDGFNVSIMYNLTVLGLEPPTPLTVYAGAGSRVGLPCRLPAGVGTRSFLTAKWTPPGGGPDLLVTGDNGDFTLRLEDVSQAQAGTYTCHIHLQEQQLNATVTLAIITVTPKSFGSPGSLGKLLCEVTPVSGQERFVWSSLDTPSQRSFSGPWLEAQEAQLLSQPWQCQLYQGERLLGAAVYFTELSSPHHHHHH
Experimental: Wild type fucosylated and afucosylated antibodies were compared for their ability to bind to recombinant human LAG-3 ECD with a C-terminal His6 (SEQ ID NO:51) using the Biacore™ T100 (GE Healthcare™). Protein A was immobilised on a CM5 chip by primary amine coupling. This surface was then used to capture the humanised antibodies. Recombinant human LAG-3 ECD-His6 was then passed over the captured antibodies at 32, 8, 2, 0.5 and 0.125 nM and regeneration was carried out using 50 mM NaOH. The binding curves were double referenced with buffer injection (i.e. 0 nM) and the data was fitted to the T100 analysis software using the 1:1 model. The run was carried out at 25° C., using HBS-EP as the running buffer.
In order to investigate the statistical significance of this kinetic data, this experiment was repeated 3 times with the same batch of the four antibodies and the chimeric control. KD, ka and kd parameters were each log (base 10) transformed prior to separate statistical analyses. For each parameter, a mixed model analysis of variance CAnova′) was performed on transformed data, including terms for Run (random block effect) and Antibody.

[6] = molecular target: T6, Recombinant cynomolgus macaque LAG-3 ECD-His6 (cynomolgus macaque, UniProt P18627 24-433 (human entry)); test: SPR Biacore T100, antibody captured on Protein A, LAG-3 ECD-His6 analyte 0.0625-16 nM, 1:1 model, 37 C
T6 construct: In-house generated; also called cyno LAG-3
T6 chain: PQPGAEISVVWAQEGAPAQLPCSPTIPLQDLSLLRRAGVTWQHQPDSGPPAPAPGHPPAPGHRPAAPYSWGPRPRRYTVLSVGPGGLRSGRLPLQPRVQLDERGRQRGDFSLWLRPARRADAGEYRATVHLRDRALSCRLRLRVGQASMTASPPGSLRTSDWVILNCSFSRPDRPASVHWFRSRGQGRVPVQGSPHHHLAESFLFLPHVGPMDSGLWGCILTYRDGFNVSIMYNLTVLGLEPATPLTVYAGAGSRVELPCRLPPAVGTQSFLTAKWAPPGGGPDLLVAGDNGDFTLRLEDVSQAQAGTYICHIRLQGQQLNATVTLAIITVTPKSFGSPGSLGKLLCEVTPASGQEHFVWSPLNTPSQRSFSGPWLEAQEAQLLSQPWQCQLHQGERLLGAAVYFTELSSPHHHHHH
Experimental: The binding cross reactivity of anti-LAG-3 humanised antibodies for both cynomolgus macaque (cyno) and baboon recombinant LAG-3 ECD-His6 (SEQ ID NOs 52 and 53, respectively) was assessed using the Biacore™ T100 (GE Healthcare).
Protein A was immobilised on a CM5 chip by primary amine coupling. This surface was then used to capture the humanised antibodies. In-house generated recombinant cynomolgus macaque and baboon LAG-3 ECD-His6 were then passed over the captured antibodies and regeneration was carried out using 50 mM NaOH. LAG-3 ECD-His6 was passed over at 16, 4, 1, 0.25 and 0.0625 nM. The binding curves were double referenced with buffer injection (i.e. 0 nM) and the data was fitted to the T100 analysis software using the 1:1 model. The run was carried out at 37° C. using HBS-EP as the running buffer.

T2 sequence (P08637 17-208 F176V limits assumed): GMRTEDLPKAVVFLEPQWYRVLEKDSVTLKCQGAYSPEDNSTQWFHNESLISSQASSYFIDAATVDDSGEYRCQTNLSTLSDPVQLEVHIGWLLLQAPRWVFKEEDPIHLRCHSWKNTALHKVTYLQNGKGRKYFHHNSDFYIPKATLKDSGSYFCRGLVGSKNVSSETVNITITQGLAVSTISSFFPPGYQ
T1 sequence (P08637 17-208 limits assumed): as the sequence (P08637 17-208 F176V limits assumed) above, with V160F counted along it
T4 sequence (P12314 16-288 limits assumed): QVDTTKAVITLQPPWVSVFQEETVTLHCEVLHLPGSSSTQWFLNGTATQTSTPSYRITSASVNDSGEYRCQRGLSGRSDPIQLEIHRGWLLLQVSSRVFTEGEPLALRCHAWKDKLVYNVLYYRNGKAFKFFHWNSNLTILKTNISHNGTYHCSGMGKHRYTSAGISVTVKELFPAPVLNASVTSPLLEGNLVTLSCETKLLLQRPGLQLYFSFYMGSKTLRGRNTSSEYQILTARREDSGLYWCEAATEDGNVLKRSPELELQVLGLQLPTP

Kd [1]: 1750 nM
Kd [2]: 406 nM
Kd [3]: 1280 nM
Kd [4]: 39 nM
Kd [5]: 2.76 nM
Kd [6]: 0.021 nM
B1: IMP731 (antibody, human IgG1, kappa)
heavy: not shown
light: DIVMTQSPSSLAVSVGQKVTMSCKSSQSLLNGSNQKNYLAWYQQKPGQSPKLLVYFASTRDSGVPDRFIGSGSGTDFTLTISSVQAEDLADYFCLQHFGTPPTFGGGTKLEIKRTVAAPSVFIFPPSDEQLKSGTASVVCLLNNFYPREAKVQWKVDNALQSGNSQESVTEQDSKDSTYSLSSTLTLSKADYEKHKVYACEVTHQGLSSPVTKSFNRGEC
notes: Chimeric (murine variable domains, human IgG1/kappa constant regions); also called A9H12; chimeric antibody IMP731

Kd [1]: 81.1 nM
Kd [2]: 21.8 nM
Kd [3]: 1430 nM
Kd [4]: 26.4 nM
Kd [5]: 0.218 nM
Kd [6]: 0.021 nM
B2: H5L7BW (antibody, human IgG1, kappa)
heavy: not shown
light: DIQMTQSPSSLSASVGDRVTITCKSSQSLLNPSNQKNYLAWYQQKPGKAPKLLVYFASTRDSGVPSRFSGSGSGTDFTLTISSLQPEDFATYYCLQHFGTPPTFGQGTKLEIKRTVAAPSVFIFPPSDEQLKSGTASVVCLLNNFYPREAKVQWKVDNALQSGNSQESVTEQDSKDSTYSLSSTLTLSKADYEKHKVYACEVTHQGLSSPVTKSFNRGEC
modifications: afucosylated: no fucose on the core carbohydrate structure attached to Asn297
notes: Same plasmids as H5L7, expressed in the BioWa POTELLIGENT (FUT8 knock-out CHO) cell line; also called afucosylated antibody H5L7BW; afucosylated H5L7

Kd [1]: 752 nM
Kd [2]: 236 nM
Kd [3]: 638 nM
Kd [4]: 26.3 nM
Kd [5]: 0.208 nM
Kd [6]: 0.017 nM
B3: H5L7 (antibody, human IgG1, kappa)
heavy: not shown
light: B2 light
notes: Humanised IgG1/kappa of A9H12 (IMP731); also called fucosylated H5L7; non-ADCC enhanced variant H5L7
